Experimental data published in publication PMC4976026 (The Journal of allergy and clinical immunology, 2016).

Target: T1, tGFP-tagged Rab27a R82C (human, UniProt P51159 1-221, R82C)
T1 sequence (looked up): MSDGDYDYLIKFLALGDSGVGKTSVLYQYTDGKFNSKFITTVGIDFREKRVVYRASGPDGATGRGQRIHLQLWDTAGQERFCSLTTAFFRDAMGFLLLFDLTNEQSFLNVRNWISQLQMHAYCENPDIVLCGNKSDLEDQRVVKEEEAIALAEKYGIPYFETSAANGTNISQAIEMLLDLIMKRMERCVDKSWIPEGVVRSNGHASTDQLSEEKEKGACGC
Experiment: co-IP

fold melanophilin coprecipitated relative to Rab27a D74H: 2.7 ± 1.4 fold
B1: melanophilin (natural protein, human (endogenous in mel1106), UniProt Q9BV36 1-600, looked up)
chain: MGKKLDLSKLTDEEAQHVLEVVQRDFDLRRKEEERLEALKGKIKKESSKRELLSDTAHLNETHCARCLQPYQLLVNSKRQCLECGLFTCKSCGRVHPEEQGWICDPCHLARVVKIGSLEWYYEHVKARFKRFGSAKVIRSLHGRLQGGAGPELISEERSGDSDQTDEDGEPGSEAQAQAQPFGSKKKRLLSVHDFDFEGDSDDSTQPQGHSLHLSSVPEARDSPQSLTDESCSEKAAPHKAEGLEEADTGASGCHSHPEEQPTSISPSRHGALAELCPPGGSHRMALGTAAALGSNVIRNEQLPLQYLADVDTSDEESIRAHVMASHHSKRRGRASSESQIFELNKHISAVECLLTYLENTVVPPLAKGLGAGVRTEADVEEEALRRKLEELTSNVSDQETSSEEEEAKDEKAEPNRDKSVGPLPQADPEVGTAAHQTNRQEKSPQDPGDPVQYNRTTDEELSELEDRVAVTASEVQQAESEVSDIESRIAALRAAGLTVKPSGKPRRKSNLPIFLPRVAGKLGKRPEDPNADPSSEAKAMAVPYLLRRKFSNSLKSQGKDDDSFDRKSVYRGSLTQRNPNARKGMASHTFAKPVVAHQS
